The text below walks through data of publication PMC2691818.

Data set [1] has as its target T1, h-mtTFA1-179 (Homo sapiens, UniProt Q00059 43-221).
T1 sequence: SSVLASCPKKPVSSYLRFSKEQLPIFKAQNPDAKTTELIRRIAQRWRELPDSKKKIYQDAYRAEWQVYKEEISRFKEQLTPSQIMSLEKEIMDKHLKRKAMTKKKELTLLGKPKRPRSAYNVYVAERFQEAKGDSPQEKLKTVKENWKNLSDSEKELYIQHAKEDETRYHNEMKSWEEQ
Kind of data set: competition.

Data set [2] addresses T2, h-mtTFA box B (mtTFA110-179) (Homo sapiens, UniProt Q00059 152-221).
T2 sequence: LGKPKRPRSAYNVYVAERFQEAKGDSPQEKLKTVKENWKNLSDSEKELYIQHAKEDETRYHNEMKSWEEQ
Description: EMSA.

For data set [3], the target named is T3, h-mtTFA full-length (mature) (Homo sapiens, UniProt Q00059 43-246).
T3 sequence: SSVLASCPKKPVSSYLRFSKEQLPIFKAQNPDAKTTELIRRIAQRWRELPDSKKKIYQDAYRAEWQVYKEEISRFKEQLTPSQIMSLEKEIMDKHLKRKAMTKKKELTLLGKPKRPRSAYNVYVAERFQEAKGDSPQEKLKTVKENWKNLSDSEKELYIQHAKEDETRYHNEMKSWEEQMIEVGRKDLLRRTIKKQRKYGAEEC
Kind of data set: EMSA. (In EMSA bound probe runs differently from free probe, usually more slowly.)

Data set [4] deals with T1, h-mtTFA1-179. Description: EMSA.

B1: 30 bp scrambled nonspecific DNA (NS DNA) (dsDNA)
DNA 1: ACTACTAACAGACCGCAACCTAAACACAAC
DNA 2: GTTGTGTTTAGGTTGCGGTCTGTTAGTAGT
In the case of B1, the binding result in the data set with h-mtTFA1-179 [1] was “binds”.

B2: 30 bp LSP DNA, unlabeled (dsDNA)
DNA 1: GTGTTAGTTGGGGGGTGACTGTTAAAAGTG
DNA 2: CACTTTTAACAGTCACCCCCCAACTAACAC
Regarding B2, the binding result in data set [2] was “no binding”.

B3: 30 bp LSP DNA, 32P-labeled (dsDNA)
DNA 1: GTGTTAGTTGGGGGGTGACTGTTAAAAGTG
DNA 2: CACTTTTAACAGTCACCCCCCAACTAACAC
In the case of B3, the Kd in data set [3] was determined as 5.4 ± 0.6 nM; with h-mtTFA1-179 [4], 12 ± 1.7 nM.

By Kd is commonly meant the equilibrium constant for the complex coming apart. Low values mean a tighter complex, high ones a looser complex.
